Source: patent publication US5849897

Assays:
[1] = target: human ciliary neurotrophic factor receptor (CNTFR) (human); test: indirect binding: CNTF-myc, 9E10, FITC-labelled goat anti-mouse antibody, FACS of transfected COS cells
[2] = target: human ciliary neurotrophic factor receptor (CNTFR) (human); test: indirect binding on COS cells transfected with clone I1: CNTF-myc, 9E10, 125I goat anti-mouse; hand-held gamma counter
[3] = target: human ciliary neurotrophic factor receptor (CNTFR) (human); test: indirect binding on COS cells transfected with clone I2: CNTF-myc, 9E10, 125I goat anti-mouse; hand-held gamma counter
[4] = target: human ciliary neurotrophic factor receptor (CNTFR) (human); test: indirect binding on COS cells transfected with clone I4: CNTF-myc, 9E10, 125I goat anti-mouse; hand-held gamma counter
[5] = target: human ciliary neurotrophic factor receptor (CNTFR) (human); test: indirect binding on COS cells transfected with clone I5: CNTF-myc, 9E10, 125I goat anti-mouse; hand-held gamma counter
[6] = target: human ciliary neurotrophic factor receptor (CNTFR) (human); test: indirect binding on COS cells transfected with clone I6: CNTF-myc, 9E10, 125I goat anti-mouse; hand-held gamma counter
[7] = target: human ciliary neurotrophic factor receptor (CNTFR) (human); test: indirect binding on COS cells transfected with clone I7: CNTF-myc, 9E10, 125I goat anti-mouse; hand-held gamma counter
[8] = target: human ciliary neurotrophic factor receptor (CNTFR) (human); test: indirect binding on COS cells transfected with clone I8: CNTF-myc, 9E10, 125I goat anti-mouse; hand-held gamma counter
[9] = target: human ciliary neurotrophic factor receptor (CNTFR) (human); test: indirect binding on COS cells transfected with clone I9: CNTF-myc, 9E10, 125I goat anti-mouse; hand-held gamma counter
[10] = target: human ciliary neurotrophic factor receptor (CNTFR) (human); test: indirect binding on COS cells transfected with clone I10: CNTF-myc, 9E10, 125I goat anti-mouse; hand-held gamma counter
[11] = target: human ciliary neurotrophic factor receptor (CNTFR) (human); test: indirect binding on COS cells transfected with clone I11: CNTF-myc, 9E10, 125I goat anti-mouse; hand-held gamma counter
[12] = target: human ciliary neurotrophic factor receptor (CNTFR) (human); test: indirect binding on COS cells transfected with clone I12: CNTF-myc, 9E10, 125I goat anti-mouse; hand-held gamma counter
[13] = target: human ciliary neurotrophic factor receptor (CNTFR) (human); test: indirect binding on COS cells transfected with clone I13: CNTF-myc, 9E10, 125I goat anti-mouse; hand-held gamma counter
[14] = target: human ciliary neurotrophic factor receptor (CNTFR) (human); test: indirect binding on COS cells transfected with clone I14: CNTF-myc, 9E10, 125I goat anti-mouse; hand-held gamma counter
[15] = target: human ciliary neurotrophic factor receptor (CNTFR) (human); test: indirect binding on COS cells transfected with clone I15: CNTF-myc, 9E10, 125I goat anti-mouse; hand-held gamma counter

fold increase (FACS, positive against negative clones) [1]: 100 fold | CPM bound [2]: 2000 CPM | CPM bound [3]: 8500 CPM | CPM bound [4]: 9000 CPM | CPM bound [5]: 2000 CPM | CPM bound [6]: 1600 CPM | CPM bound [7]: 6000 CPM | CPM bound [8]: 7500 CPM | CPM bound [9]: 7000 CPM | CPM bound [10]: 4500 CPM | CPM bound [11]: 7000 CPM | CPM bound [12]: 5000 CPM | CPM bound [13]: 8000 CPM | CPM bound [14]: 10000 CPM | CPM bound [15]: 8000 CPM
Substance: CNTF/myc (ligand)
